# Laboratory results: publication PMC4950008
# Target: T1, His-GlnR (UniProt O53830)
# T1 sequence: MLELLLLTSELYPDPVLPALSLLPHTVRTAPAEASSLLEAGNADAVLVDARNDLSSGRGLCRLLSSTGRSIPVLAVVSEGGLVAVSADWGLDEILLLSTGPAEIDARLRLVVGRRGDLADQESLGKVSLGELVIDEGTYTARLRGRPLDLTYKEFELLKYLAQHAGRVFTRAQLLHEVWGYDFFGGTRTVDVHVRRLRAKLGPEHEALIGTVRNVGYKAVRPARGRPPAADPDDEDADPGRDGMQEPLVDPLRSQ
# Test: EMSA
sequence,measurement,value
ACTCCCTGCGGCAAGGTGTAGGCCAGCTCGCGCAACTTAACCGCGCACTCGTAGAGCGTCTGGCGGAAATGCGTTTCGGTCATCGGGGTGCCTTCGCTCGTCGGCGAGATCGGCAGCGGTGTCTTGTGCTCATACAGATCAATCTCATTCATCAGAGCCATCATTCGCCGGCTAGCAGCTGCAAATCATCAGCACATCCACGTATGTC (double strand) [Rv1360 upstream region (negative control)],binding,no binding
"CACAGACTCCATCTGTTGGGGGTTCAACGGGGATTCAACCGGACACTTAGCGCCACTATTGAATATGAATATCATTTGAACGAGAGGTTAACACAGCGTGACGACGGCCCAGGGCGGTGAGTTTGGTCACACGAGCGCTGGGCTCACCACCCCATGCTGGTGGGATTTAGC (double strand) [peak 13, Rv1386 (PE15) promoter region]",binding,binds
"CATGAGCTGATGAATGGAGTCCACTACCGGCCGGTGCGGCGACCAAGGATCTGTTTGCGACGGGATCTGTGCGACGTTGGCGGCAATCAGCTTGTTACAGCTGATAATCCGAGCGTGATCGCGACCTAACCGGCAGGCAACGCCGGCATGGTCCCCTGGCACGATGGGACTACTGTCACGCTTGCGCAAACGTGAGCCGATCAGCATCTACGACAAGATC (double strand) [peak 17, Rv1542c (glbN) promoter region]",binding,binds
"GTACGTCCACAATCGAAGGACGCGGAAGCACGGGGCCGCGACCACCGAGACCCGTGGCGGCCCATGGCCGCAAGGAGGCTCCTCGCGAGATTCGTCACGCGTTACCTGGATTTAACCTGCGCCCGTCCGAAGCGCCCGGCTTTTTCGTAGGCTTCGCTGCGGTTGGGGCCAGACAGCGCCGTGAAGCCCGGTGGGTGTGGCCGGCTGACGGGATGGT (double strand) [peak 18, Rv1548c (PPE22)/Rv1549 (fadD11) promoter region]",binding,binds
